Patent publication US10568344B2, “Methods of improving animal performance” (Novozymes A/S, priority 2015, dated 2020)
Marks after values point to notes of the source that are not given here.

Legend:
[1] = In vivo broiler trial 1, growth performance; design: species or system male broiler chickens (ROSS PM3)
[2] = system: chicken gut microbiota; assay: Microbiota analysis of broiler trial 4 (16S rRNA), overall composition; format: in vivo; settings: 50 ppm; ceca content
[3] = In vivo broiler trial 4, FCR and EPEF; design: species or system male broiler type chickens (Cobb 500); settings: 50 mg/kg in Grower feed (Days 8-24)
Procedure: Diet composition was designed to meet or exceed the requirements except for metabolisable energy, phosphorus and calcium (tables 15 and 16). […] During the Grower period, the lysozyme (SEQ ID NO: 1) was applied at […] as a liquid formulation (table 14). There were no other enzymes or any coccidiostats supplemented in the diets. The diets were prepared at a […] specialised in experimental diets and the mash feed was offered ad libitum to the birds. At the day of hatching, male day-old broiler type chickens (male byproducts of female parental line of Cobb 500) were obtained from Cobb Germany […] GmbH, […] (Brö[…] birds were randomly assigned in groups of 22 chickens to the experimental pens ( 3 sq·m.) equipped with a bell drinker and a round feeder. After 7 days of equal rearing, number of birds per pen was reduced to 20, selecting against obviously light birds. Recorded body weights (BW) were immediately statistically evaluated. In order to ensure similar average BW between treatments and variation within treatments statistical evaluation of BW-placement of chicks was coordinated in such a way as to minimize within-pen variation and between-treatment differences of average BW. Feed and water were freely available, feed consumption was recorded. Initial bedding consisted of wood shavings. Caked excreta patches around the drinkers were removed several times during the experimental period and more bedding material was added when required. Light and temperature regimes were managed according to the breeder's recommendations. Birds were weighed (groupwise) at placement and at the end of each fattening period. At the final weighing, birds were weighed individually. Feed offered was recorded continuously upon refilling the feeders; the feed remaining in the feeders was recorded at the end of each fattening period. […] Daily BW gain per bird (BW gain) and feed conversion ratio (FCR) were calculated as follows: BWgain: difference between BW per bird at the end and at the beginning of the study divided by the number of days FCR: total feed consumption of a pen divided by total BW gain of that pen (total BW gain=total BW at the end+weight of removals and losses-total BW at the beginning) The European Production Efficacy Factor (EEF) was calculated as follows: EEF=[(liveability,%×BWgain,kg)/(Study duration in days×FCR)]×100. Statistical Analysis Data of performance was analysed using a bi-factorial ANOVA (procedure PROC GLM) with the fixed effects of lysozyme supplementation as well as their interaction. Differences were investigated between the various levels of each main factor (Tukey test), accounting for multiple comparisons where appropriate.

[4] = Grower (d 22-36), 25 mg/kg feed
[5] = Grower (d 22-36), 50 mg/kg feed
[6] = Grower (d 22-36), 100 mg/kg feed
[7] = Grower (d 22-36), 200 mg/kg feed
[8] = Starter (d 1-22), 25 mg/kg feed
[9] = Starter (d 1-22), 50 mg/kg feed
[10] = Starter (d 1-22), 100 mg/kg feed
[11] = Starter (d 1-22), 200 mg/kg feed
[12] = Whole period (d 1-36), 25 mg/kg feed
[13] = Whole period (d 1-36), 50 mg/kg feed
[14] = Whole period (d 1-36), 100 mg/kg feed
[15] = Whole period (d 1-36), 200 mg/kg feed

B1: SEQ ID NO: 1: mature amino acid sequence of a wild type GH25 lysozyme from Acremonium alcalophilum with N-terminal SPIRR (protein)
chain: SPIRRRIPGFDISGWQPTTDFARAYANGDRFVYIKATEGTTFKSSAFSRQYTGATQNGFIRGAYHFAQPAASSGAAQARYFASNGGGWSKDGITLPGALDIEYNPNGATCYGLSQSAMVNWIEDFVTTYHGITSRWPVIYTTTDWWTQCTGNSNRFANRCPLWIARYASSVGTLPNGWGFYTFWQYNDKYPQGGDSNWFNGDASRLRALANGD
modifications: Wild type sequence with N-terminal SPIRR
Improvement of FCR compared to the control diet ([1]; 25 mg/kg): 3.3% | Improvement of FCR compared to the control diet ([1]; 50 mg/kg): 2.9% | Improvement of FCR compared to the control diet ([1]; 100 mg/kg): 3.2% | FCR [1, 4]: 1.676^c | FCR, Relative to C (%) [1, 4]: 96.7% | Feed intake [1, 4]: 3004^ab g/b | Feed intake, Relative to C (%) [1, 4]: 98.5% | Weight gain [1, 4]: 1792 g/b | Weight gain, Relative to C (%) [1, 4]: 101.9% | FCR [1, 5]: 1.683^bc | FCR, Relative to C (%) [1, 5]: 97.1% | Feed intake [1, 5]: 2939^ab g/b | Feed intake, Relative to C (%) [1, 5]: 96.4% | Weight gain [1, 5]: 1747 g/b | Weight gain, Relative to C (%) [1, 5]: 99.3% | FCR [1, 6]: 1.662^c | FCR, Relative to C (%) [1, 6]: 95.8% | Feed intake [1, 6]: 2870^b g/b | Feed intake, Relative to C (%) [1, 6]: 94.1% | Weight gain [1, 6]: 1729 g/b | Weight gain, Relative to C (%) [1, 6]: 98.2% | FCR [1, 7]: 1.742^a | FCR, Relative to C (%) [1, 7]: 100.5% | Feed intake [1, 7]: 2934^ab g/b | Feed intake, Relative to C (%) [1, 7]: 96.2% | Weight gain [1, 7]: 1685 g/b | Weight gain, Relative to C (%) [1, 7]: 95.7% | FCR [1, 8]: 1.781^ab | FCR, Relative to C (%) [1, 8]: 98% | Feed intake [1, 8]: 1985 g/b | Feed intake, Relative to C (%) [1, 8]: 99.5% | Weight gain [1, 8]: 1115 g/b | Weight gain, Relative to C (%) [1, 8]: 101.3% | FCR [1, 9]: 1.793^ab | FCR, Relative to C (%) [1, 9]: 98.7% | Feed intake [1, 9]: 1977 g/b | Feed intake, Relative to C (%) [1, 9]: 99.1% | Weight gain [1, 9]: 1102 g/b | Weight gain, Relative to C (%) [1, 9]: 100.1% | FCR [1, 10]: 1.723^bc | FCR, Relative to C (%) [1, 10]: 94.9% | Feed intake [1, 10]: 1941 g/b | Feed intake, Relative to C (%) [1, 10]: 97.3% | Weight gain [1, 10]: 1127 g/b | Weight gain, Relative to C (%) [1, 10]: 102.4% | FCR [1, 11]: 1.696^c | FCR, Relative to C (%) [1, 11]: 93.4% | Feed intake [1, 11]: 1946 g/b | Feed intake, Relative to C (%) [1, 11]: 97.6% | Weight gain [1, 11]: 1148 g/b | Weight gain, Relative to C (%) [1, 11]: 104.2% | FCR [1, 12]: 1.716^bc | FCR, Relative to C (%) [1, 12]: 97.3% | Feed intake [1, 12]: 4991^ab g/b | Feed intake, Relative to C (%) [1, 12]: 98.9% | Weight gain [1, 12]: 2908 g/b | Weight gain, Relative to C (%) [1, 12]: 101.6% | FCR [1, 13]: 1.727^b | FCR, Relative to C (%) [1, 13]: 97.9% | Feed intake [1, 13]: 4920^ab g/b | Feed intake, Relative to C (%) [1, 13]: 97.5% | Weight gain [1, 13]: 2849 g/b | Weight gain, Relative to C (%) [1, 13]: 99.6% | FCR [1, 14]: 1.686^c | FCR, Relative to C (%) [1, 14]: 95.6% | Feed intake [1, 14]: 4815^b g/b | Feed intake, Relative to C (%) [1, 14]: 95.4% | Weight gain [1, 14]: 2856 g/b | Weight gain, Relative to C (%) [1, 14]: 99.8% | FCR [1, 15]: 1.722^b | FCR, Relative to C (%) [1, 15]: 97.6% | Feed intake [1, 15]: 4877^ab g/b | Feed intake, Relative to C (%) [1, 15]: 96.6% | Weight gain [1, 15]: 2832 g/b | Weight gain, Relative to C (%) [1, 15]: 99% | Improvement of weight gain compared to the control diet ([1]; day 1 to day 36, 25 mg/kg): 1.6% | Improvement of FCR compared to the control diet ([1]; starter period, 25 mg/kg): 2.0% | Improvement of weight gain compared to the control diet ([1]; starter period, 25 mg/kg): 1.3% | Improvement of FCR compared to the control diet ([1]; starter period, 100 mg/kg): 5.1% | Improvement of weight gain compared to the control diet ([1]; starter period, 100 mg/kg): 2.4% | Improvement of FCR compared to the control diet ([1]; starter period, 200 mg/kg): 6.6% | Improvement of weight gain compared to the control diet ([1]; starter period, 200 mg/kg): 4.2% | Observed shift in the composition of the microbiota compared to the control group, Significance [2]: +++ (Significant change (+++), p-value < 0.05) | EPEF [3]: 327 | FCR [3]: 1.56 | EPEF % improvement ([3]; vs no lysozyme): 3.8% | EPEF change ([3]; vs no lysozyme): 12 | FCR % improvement ([3]; vs no lysozyme): 1.9% | FCR change ([3]; vs no lysozyme): 0.03
